Results: patent US11884740 (TG THERAPEUTICS, dated 2024)

Tests used:
Assay in all cases: cell-based or functional assay
[1] = molecular target: C1q Receptor in the complement system (rabbit serum as the source of complement) (rabbit)
[2] = molecular target: T1, FcγIIIA Receptor on the effector cells (human, UniProt P08637 17-254)
[3] = molecular target: T1, FcγIIIA Receptor on the effector cells; remark: listed apart in the source

T1 sequence (P08637 17-254): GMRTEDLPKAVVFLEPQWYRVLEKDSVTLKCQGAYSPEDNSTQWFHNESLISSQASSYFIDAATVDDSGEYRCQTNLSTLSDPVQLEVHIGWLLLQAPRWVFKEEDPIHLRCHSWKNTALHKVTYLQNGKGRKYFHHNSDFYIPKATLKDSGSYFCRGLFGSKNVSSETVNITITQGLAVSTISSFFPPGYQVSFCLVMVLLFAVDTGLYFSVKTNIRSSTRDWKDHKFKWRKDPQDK

- EC50 (CDC, Jeko-1 cells, rabbit complement) [1]: 670 ng/mL
- EC50 of ADCC assay Using Primary NK Cells (Raji targets, LDH release) [2]: 49000 ng/mL
- EC50 (ADCC, Raji targets, KILR CD16a effector cells) [3]: 0.00242 ng/mL
B1: TG-1101 (TG Therapeutics, Inc.) (antibody, human IgG1, kappa)
heavy: not shown
light: QIVLSQSPAILSASPGEKVTMTCRASSSVSYMHWYQQKPGSSPKPWIYATSNLASGVPARFSGSGSGTSYSFTISRVEAEDAATYYCQQWTFNPPTFGGGTRLEIKRTVAAPSVFIFPPSDEQLKSGTASVVCLLNNFYPREAKVQWKVDNALQSGNSQESVTEQDSKDSTYSLSSTLTLSKADYEKHKVYACEVTHQGLSSPVTKSFNRGEC
